The target of one assay is HLA-B*15:17. The assay can be described thus: IEDB peptide-MHC binding, purified MHC/direct/fluorescence; filed as Kd, often an IC50 or EC50 that approximates it; ≥ and ≤ were set here for values at or beyond the usual limits of such assays. As to conditions: source organism: Mycobacterium tuberculosis.
The target of the next assay is HLA-A*03:01. Described as above. As to conditions: source organism: Mycobacterium tuberculosis.
For another assay, the target named is HLA-B*51:01. The assay is described as above. As to conditions: source organism: Mycobacterium tuberculosis.
The next assay addresses HLA-A*01:01. Described as above. As to conditions: source organism: Mycobacterium tuberculosis.
In the next assay the target is HLA-A*69:01. Described as above. As to conditions: source organism: Mycobacterium tuberculosis.
The target of the next assay is HLA-B*08:02. The assay is described as above.
In a further assay the target is HLA-B*46:01. Described as above. As to conditions: source organism: Mycobacterium tuberculosis.
The next assay concerns the target HLA-B*57:01. The assay is described as above. As to conditions: source organism: Mycobacterium tuberculosis.
In another assay the target is HLA-B*08:01. The assay is described as above.
A further assay has as its target HLA-B*58:01. Described as above. As to conditions: source organism: Mycobacterium tuberculosis.
The target of a further assay is HLA-A*02:01. The assay is described as above. As to conditions: source organism: Mycobacterium tuberculosis.
In another assay the target is HLA-B*38:01. The assay is described as above.
Another assay has as its target HLA-B*40:01. Described as above. As to conditions: source organism: Mycobacterium tuberculosis.
A further assay deals with HLA-B*18:01. The assay is described as above. As to conditions: source organism: Mycobacterium tuberculosis.
A further assay concerns the target HLA-A*11:01. The description is as above. As to conditions: source organism: Mycobacterium tuberculosis.
For a further assay, the target named is HLA-B*27:05. The description is as above. As to conditions: source organism: Mycobacterium tuberculosis.
Another assay concerns the target HLA-A*31:01. Described as above. As to conditions: source organism: Mycobacterium tuberculosis.
The next assay concerns the target HLA-B*48:01. The description is as above. As to conditions: source organism: Mycobacterium tuberculosis.
In assay [1] the target is HLA-B*15:01. The description is as above. As to conditions: source organism: Mycobacterium tuberculosis.
A further assay addresses HLA-A*26:01. Described as above.
The next assay concerns the target HLA-B*15:09. The assay can be described thus: IEDB peptide-MHC binding, purified MHC/competitive/fluorescence; filed as Kd, often an IC50 or EC50 that approximates it; ≥ and ≤ were set here for values at or beyond the usual limits of such assays. As to conditions: source organism: Mycobacterium tuberculosis C.
The next assay has as its target HLA-B*39:01. The assay is described as above. As to conditions: source organism: Mycobacterium tuberculosis C.
Assay [2] has as its target HLA-B*15:01. The assay is described as above.
The next assay deals with HLA-A*30:01. The assay can be described thus: IEDB peptide-MHC binding, purified MHC/direct/fluorescence; filed as Kd, often an IC50 or EC50 that approximates it; ≥ and ≤ were set here for values at or beyond the usual limits of such assays. As to conditions: source organism: Mycobacterium tuberculosis str. Haarlem.
Another assay concerns the target HLA-B*15:42. The assay can be described thus: IEDB peptide-MHC binding, purified MHC/competitive/fluorescence; filed as Kd, often an IC50 or EC50 that approximates it; ≥ and ≤ were set here for values at or beyond the usual limits of such assays. As to conditions: source organism: Mycobacterium tuberculosis variant bovis BCG str. Pasteur 1173P2.
The target in another assay is HLA-B*45:06. The assay is described as above. As to conditions: source organism: Mycobacterium tuberculosis variant bovis BCG str. Pasteur 1173P2.
A further assay deals with HLA-B*83:01. The description is as above. As to conditions: source organism: Mycobacterium tuberculosis variant bovis BCG str. Pasteur 1173P2.
Where [3] appears, read: source organism: Mycobacterium tuberculosis F11.
The mark [4] stands for this setting: source organism: Mycobacterium tuberculosis str. Haarlem.

KPKLARGEL: the Kd is not below 20 µM in the assay with HLA-B*15:17; not below 20 µM with HLA-A*03:01; not below 20 µM with HLA-B*51:01; not below 20 µM in the assay with HLA-A*01:01; not below 20 µM in the assay with HLA-A*69:01; not below 5 µM with HLA-B*08:02 (setting [3]). Also, the Kd was not below 20 µM with HLA-B*46:01; not below 20 µM in the assay with HLA-B*57:01; 0.19 µM in the assay with HLA-B*08:01 (setting [3]); not below 20 µM with HLA-B*58:01; not below 20 µM with HLA-A*02:01; not below 20 µM in the assay with HLA-B*38:01 (setting [3]). The Kd was 1.16 µM with HLA-B*40:01; 2.57 µM in the assay with HLA-B*18:01; not below 20 µM in the assay with HLA-A*11:01; not below 20 µM with HLA-B*27:05; not below 20 µM in the assay with HLA-A*31:01; not below 20 µM in the assay with HLA-B*48:01. Besides, the Kd in the assay with HLA-B*15:01 [1] and with HLA-A*26:01 (setting [3]) was not below 20 µM in each case.
With RPKPDYSAM, the Kd with HLA-B*15:09 was not below 20 µM; with HLA-B*39:01, 1.96 µM; in the assay with HLA-B*15:01 [2] (source organism: Mycobacterium tuberculosis C), not below 20 µM; in the assay with HLA-A*03:01, not below 20 µM; with HLA-B*51:01, not below 20 µM; in the assay with HLA-A*01:01, not below 20 µM. The Kd with HLA-A*69:01 was not below 20 µM; in the assay with HLA-B*08:02 (setting [4]), not below 20 µM; with HLA-B*46:01 it was not below 20 µM; with HLA-B*57:01, not below 20 µM; in the assay with HLA-B*08:01 (setting [4]) it was 0.08 µM; with HLA-B*58:01 it was not below 20 µM. The Kd with HLA-A*02:01, with HLA-B*38:01 (setting [4]), in the assay with HLA-B*40:01, with HLA-B*18:01, in the assay with HLA-A*11:01 and in the assay with HLA-B*27:05 was not below 20 µM throughout. Besides, the Kd with HLA-A*30:01 was 0.123 µM; with HLA-A*31:01, not below 20 µM; in the assay with HLA-B*48:01, not below 20 µM; with HLA-A*26:01 (setting [4]) it was not below 20 µM.
Take RPRVAQLTF: the Kd in the assay with HLA-B*15:42 was not below 5 µM; with HLA-B*45:06, not below 5 µM; in the assay with HLA-B*83:01, 2.01 µM; with HLA-B*15:01 [2] (source organism: Mycobacterium tuberculosis variant bovis BCG str. Pasteur 1173P2), not below 20 µM; with HLA-B*15:17, 0.169 µM; with HLA-A*03:01, not below 20 µM. Further, the Kd was not below 20 µM with HLA-B*51:01; 4.16 µM in the assay with HLA-A*01:01; not below 20 µM with HLA-A*69:01; 3.86 µM in the assay with HLA-B*08:02 (setting [4]); not below 20 µM with HLA-B*46:01; 0.864 µM in the assay with HLA-B*57:01. Moreover, the Kd in the assay with HLA-B*08:01 (setting [4]) is 0.267 µM; with HLA-B*58:01, not below 20 µM; with HLA-A*02:01, not below 20 µM; with HLA-B*38:01 (setting [4]), not below 20 µM; with HLA-B*40:01 it was not below 20 µM; in the assay with HLA-B*18:01, 0.104 µM. The Kd in the assay with HLA-A*11:01, in the assay with HLA-B*27:05, in the assay with HLA-A*31:01 and with HLA-B*48:01 was not below 20 µM throughout.
